Key:
MBP-Jacob-45-228-180A = molecular target: T1, MBP-Jacob-45-228-180A (UniProt Q9EPI6 45-228, S180A); experiment: pull-down
T1 sequence (looked up): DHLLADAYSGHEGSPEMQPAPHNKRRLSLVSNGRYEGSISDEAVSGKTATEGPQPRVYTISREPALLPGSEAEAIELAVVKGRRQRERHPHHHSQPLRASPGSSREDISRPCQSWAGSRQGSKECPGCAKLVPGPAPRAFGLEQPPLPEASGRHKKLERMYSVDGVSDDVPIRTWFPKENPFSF

MBP-Jacob-45-228 = molecular target: T2, MBP-Jacob-45-228 (UniProt Q9EPI6 45-228); experiment: pull-down
T2 sequence (looked up): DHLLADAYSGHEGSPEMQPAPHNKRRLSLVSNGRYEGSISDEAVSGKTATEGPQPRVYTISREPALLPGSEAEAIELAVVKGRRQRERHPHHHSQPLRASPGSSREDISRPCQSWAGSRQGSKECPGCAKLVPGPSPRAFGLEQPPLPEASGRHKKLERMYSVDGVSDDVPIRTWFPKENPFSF

[1] = molecular target: T3, Jacob (recombinant protein used for ITC) (UniProt Q9EPI6 1-532); experiment: ITC
T3 sequence (looked up): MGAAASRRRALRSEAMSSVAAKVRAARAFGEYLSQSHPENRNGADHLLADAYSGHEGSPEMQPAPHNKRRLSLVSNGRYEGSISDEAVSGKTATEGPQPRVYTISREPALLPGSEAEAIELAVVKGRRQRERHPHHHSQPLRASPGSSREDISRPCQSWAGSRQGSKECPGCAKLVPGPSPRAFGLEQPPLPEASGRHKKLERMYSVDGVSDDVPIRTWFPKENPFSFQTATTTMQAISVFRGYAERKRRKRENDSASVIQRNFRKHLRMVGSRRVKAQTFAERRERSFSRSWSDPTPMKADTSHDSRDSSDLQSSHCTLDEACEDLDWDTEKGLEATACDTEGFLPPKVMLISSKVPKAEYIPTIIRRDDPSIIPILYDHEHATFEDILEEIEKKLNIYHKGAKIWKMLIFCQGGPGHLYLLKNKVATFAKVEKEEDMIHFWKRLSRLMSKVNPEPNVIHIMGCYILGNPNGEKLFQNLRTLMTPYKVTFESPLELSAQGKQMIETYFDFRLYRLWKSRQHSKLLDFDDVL

B1: GST-LMO4 (natural protein, UniProt P61968 1-165, looked up)
chain: MVNPGSSSQPPPVTAGSLSWKRCAGCGGKIADRFLLYAMDSYWHSRCLKCSCCQAQLGDIGTSCYTKSGMILCRNDYIRLFGNSGACSACGQSIPASELVMRAQGNVYHLKCFTCSTCRNRLVPGDRFHYINGSLFCEHDRPTALINGHLNSLQSNPLLPDQKVC
- binding result (MBP-Jacob-45-228-180A): binds
- binding result (MBP-Jacob-45-228): binds
- Kd [1]: 370 nM

Reference: paper doi:10.1101/2020.01.08.898304 (bioRxiv, 2020)
